From the DeepSol protein solubility set

Test: soluble on expression in E. coli; label from the status in PepcDB or PDB records

Row | Sequence | soluble on expression in E. coli
1 | MAHHHHHHMWCTRLCREEGLFRFLRNLFEVLDFVTERCRRCLDTSSCLLLLCASPLSSCSIGGPHTRGCFNEILHRLSRGAQQPAHRRQSATSSHPRTPWRLHRFNDERVCVWGGNPPPQSTTGRHRSLCTPFSLSHTPSTAWAPLLPADKHHMQASPVLAGAAVRRTATASVGSEPRTNLPFLINVVKKAQKSANTVVASTPALSSMSSTKEPPIQAAAFKPYPLLSPGEVKQAAGSSLLYKDDVCVLVNDAFPKSMVHCLVMPLDLRLQSLNALTKKDAPLLRHMLHVGDEYVRYLKTAVPHTYTARRFIAGFHALPSLPMLHMHVLSTDLDSPCLKNKKHYNSFATFFFLTGDRVLDDLERHGRVTLNQDVTRLRQMEEQDMKCLWCGTALPSVPAMKSHIQCCPQNKAVEKSS | not soluble
2 | MAHHHHHHMWRRGVAAVPLPLWQGKLLQLVHHRALSTDTTGDEATAWSRAMEAKYGTGTYKLFRPLYKDLSDEMRLEAYTKPPAPMQGWSVHHDEAVNLAIFSHKGDSRSRTARVVAYSPITVENPESLNPLLYFMDWYPINVLMERNGVVVHFSIASTEGGMHMRNVRVYKAQDELSPNDPEKQDLPNRDSECERLMSTTDDAAWVRHNLYYDGPCLWHLELDMLNELYDVMQDHGVTLDWVRWVAEWVHYLEHVSYVRWALGVLQELIPVDERGPEDDFLTFEEKEALATPPEEWLEAHYI | not soluble
3 | MAHHHHHHMYDSRSSGVHDVAPRDGVDFMYEGPQQVLPGAHPLPLFHPDNSVTRPPVSPYLPSPQRPHPYFTTELPELPHFQTTRPIVYTVGTMKQRIVAPVFDLANNVTHTRELDPFIFGFYPETEEMAKNLSYWLVRCQNFSSKWDYENREIWRKAKKNWPNTGMGMARVGDRKNHAHPWGAHSKPVKPWNLLMPTMDVKTWSKSNRMLVTLKMLQGKLQIVERLTLPEPTQEAYLQLCRTMGWDVRHKGGGALFMDGGSRLTPSSEYDRAFFFGSFFNGRNKLVRPTLLCDEPYDYNRTSSKARTKGPKGQKNPIPINRFNAYDALTHDTLIITEGALLQLEDEMYTHKLAMLPPHIRAQLPERGFLDSEVLGDVPPALQTVQMEAAARTEEAEQAMYAPYYDNPYHPWQDEGEASYAVDAVEGTVQRYIKSRKTSWAMLS | not soluble
4 | MAHHHHHHMYSFSLASNRKRAIPNASGLAPPAAAHVIRAPSELKPHQRLPQPLNEAADDAADDDVMQVSNARFGWHPAHAHAPTSSLYSVRPPAEQLVHVHNLNAYAGLRDAADWSVEVQREREQKKRRALAQHEAVKLEEQRHRDAHEEQTKKEMQQRRLERQQERAELREADAMADFQERNTQFLQNQLWLMQLGSYVKQTDAQHKAHVREELHKSSSSRNHLDVDHASTTCWTGTKARGHHASAPSTEIDLRQAAEATEEAYVRLSLAYRNEAQRSRAAAAILHPGELTGKGRSRLQAIRPAGAFASPTSPSAPSQAATAVSTPSHSPAASPAPAAVTEAAAKVSAPFHTAPPMFTHTSTENMGQHANAIPYTYIPEYFDAPSAAATTGKVPAPHRAGESPEQQETGAVMPLPLSPVPVSRDVTGALQARYYPWALYSAATVRKSMLPPLPPPREASLPVRRWGAAELRDSMFGHCILEDGTIQDQCERKKVCAAYLSYTTLPRDNATATSNAAVEPQEPLHFGKRMDIWL | not soluble
5 | MAHHHHHHSLNTNLKPKLQRFASATAFACPICQENLTLLETNFKCCNRHSFDLAKFGYVNLAPQIKQSANYDKENFQNRQQILEAGFYQAILDAVSDLLASSKTTTTILDIGCGEGFYSRKLQESHSEKTFYAFDISKDSVQIAAKSEPNWAVNWFVGDLARLPIKDASMDILLDIFSPANYGEFRRVLSKDGILIKVIPTENHLKEIRQRVQDQLTNKEYSNQDIKEHFQEHFTILSSQTASLTKTITAEQLQALLSMTPLLFHVDQSKIDWSQLTEITIEAEILVGKAFEG | soluble
6 | MAHHHHHHSLTQQYLTVTALTKYLKRKFDADPYLGRVYLTGEISNFRFRANAHQYFSLKDDHAKISAIMFKSAFQKLKFQPKEGMKVMVVGRISLYENSGSYQIYIEHMEPDGVGALYQALAELREKLGKEGLFEGPKQQLPRYPKRIAVVTSPSGAVIRDIITTVKRRYPIAQLVLFPTLVQGEQAADDIVRNIQRADAQSDFDTMIIGRGGGSIEDLWPFNEEKVARAIHAATTPIISSVGHETDVTIADMVADVRAATPTAAAELAVPVLNEELLRISERRSRLEQSFLYLLQQRTERFQRLQNSYVFKQPERLYEGQTIKLDRMTQRLFQAMTTIHHQKQRQAQGIIAQLQQQTPKGQLRESQQQLAFLQRNLQTQMTQLFLNKQKQFTSAVQQLDLLSPLKIMGRGYSYTTKEDRVVKTVTELQPADQLTIHYADGTVQANVETITAKKEEFEG | soluble
7 | MAHIVIVGAGLGGLPTAYELRHILPKQHQVTVISETPYFTFIPSLPWVAMGLTSLESIQVSLQQRLKQKGINWILGRVDYLNPQNQKISLGEQSISYDYLIIATGAELALDAVAGLGPDGYTQSVCNPHHAIKAFQAWQNFLLAPGPLVVGALPKTSCLGPAYEFTLLADYVLRKQGLREQVSITFVTPEPYAGHLGIGGMANSAELVTKFMAERGVEVIENVAVTAIEANQIHLGNGRVLPFAYSMLLPPFRGPRFVRQVPGLSNQDGFIPVLPTYRHPEYASIYAVGVVVEIKPSEVTPLPLGVPKTGQMTEAMGMAVAHNIAIELGVFSAPPVTPTLDAICFADFGNSGILFLANPVLPDLATGKRRRAVALSGAWVTWAKAAFERYFLAKMRFGTAVPWFEKLALKLLGLSLVAPLAVKSSRNISQENYLEHHHHHH | not soluble
8 | MAHMNLLSVTTGDGGLSRYLEEVRRFPMLEPQEEYMLAQRYRKHNDLKAAHKLVTSHLRLVAKIAVGYRGYGLPIGEVISEGNVGLMKAVKRFEPERGFRLATYAIWWIKASIQEYVLRSWSLVKMGTTANQKRLFFNLRKLKSRLQALDNGDLNAEQVKEIAIQLNVTEDEVVSMNRRLGGDTSLNAPLRTKEGENSEWQDWLVDDSNNQEQTLIEQNELENRRSMLTNALDNLNEREKRIFKARRLSDIPLTLEELSSEFNISRERVRQIEMRAFEKIQNSIKASALSQNQV | not soluble
9 | MAHPPRLNDDKPVIWTVSVTRLFELFRDISLEFDHLANITPIQLGFEKAVTYIRKKLANERCDAIIAAGSNGAYLKSRLSVPVILIKPSGYDVLQALAKAGKLTSSIGVVTYQETIPALVAFQKTFNLRLDQRSYITEEDARGQINELKANGTEAVVGAGLITDLAEEAGMTGIFIYSAATVRQAFSDALDMTRMSLRHNTHDATRNALRTRYVLGDMLGQSPQMEQVRQTILLYARSSAAVLIEGETGTGKELAAQAIHREYFARHDARQGKKSHPFVAVNCGAIAESLLEAELFGYEEGAFTGSRRGGRAGLFEIAHGGTLFLDEIGEMPLPLQTRLLRVLEEKEVTRVGGHQPVPVDVRVISATHCNLEEDMQQGRFRRDLFYRLSILRLQLPPLRERVADILPLAESFLKVSLAALSAPFSAALRQGLQASETVLLHYDWPGNIRELRNMMERLALFLSVEPTPDLTPQFMQLLLPELARESAKTPAPRLLTPQQALEKFNGDKTAAANYLGISRTTFWRRLKS | not soluble
10 | MAHSGDNHSSEFCMLRSLSASIGADPLLVQGAGGNTSIKQAGVLWIKASGTWLKNARDDEIMVPVALAPLLDAVSHRSPAAEAAGQFTLADLNPRQLRPSIETTVHALLPQKIVVHVHCVETISIAVQANAEALLEGRLRGLDWAFVPYRRPGLPLAQAIAERLKPATNVLVLGNHGLVVAADTVAEAALLLQRVTGLLARQPRPAPPPDLDALLRLAAGSDYRLPASTAAHAVATDLASCRIAASGSLYPDHVIFLGVGSVIAGPGENAAAVVARTAAAPTSILFPGKGVLMRREANAGAEAMARCLADVVARVDGAARVNYLSPKENAELLNWDAEKYRQQLNREGATLQLEHHHHHH | not soluble
11 | MAIWQGASRRLSTGAKVWRAAKKHKREMGRPAAETQVSDKIKRKIVRCRGANLKVKLEKTNYANVFDQANKVCKKVVVTNVIDNKANKHYIRRNVMTKGAIIETEMGKAKVTSRPGQDGVVNAILLTELEHHHHHH | soluble
12 | MAKAFEEQRRSPDLEALPFEDRIGLLVDREAAERDTRRLTTRLKIAALRQTACVEDVDLRTPRGIDRAVFAKLVEGRWIDRHENLLVTGATGLGKSWLACALGHKACRDNRSVLYHRVPRLFEALALARGDGRYARLLKSLGRAQLLILDDWGLSVLTAAERRDLLEILEDRHGRASTIVTRQLPVDTWHGAIGDPTVADAILDRLVHNAHRLQLTGESMRKRSAKTITLDGQPEHAAALEHHHHHH | not soluble
13 | MAKATYACVECGYRTPKPLGRCPSCGSWESFQEVAPAPASRRAKPSPLPLLALSQVDEAEERRFSSGLSEVDRVLGGGFVTGEVVLLGGEPGVGKSTLLLEMAKRMPQRVYYVAGEESPAQIKLRAQRLGVKDLLLVRETRLEPLLALLEEDPPEVLFVDSVQTLEAGGSPGSLVAVREATSALVRFAKESGAAVVLVGHVTKEGVVAGPKSVEHAVDATLYLETAGPYRVLRSAKNRFGPVGEIGVFRMEEAGLLEVENPSEAFLKERPLGVPGSAVALALAGERALALEVQALAAKTPFPAPRRVVQGLDSRRVDVVLAVLERRLGLPLANLDIYVNLAGGLKVQDPGLDLAVALAVYSAVVGRPLPADLALVGEVGLAGEVRRVAGLERRLREGERAGFGRFLHPGNLKRLQEAVEAYLALEHHHHHH | not soluble
14 | MAKDVKPTRKNLMQIEDRIELSERGHDTLEKKRDGLIMEFMDILDQAQDVREDLDGSYERAQRAINMARAMEGDVAVRGAAAALKEHPELTTQSKNIMGVVVPQIESSKVRKSLDERGYGVMGTSARIDEAAEAYEELLENIILAAEVETAMKKMLEEIETTKRRVNALEFKLLPDLYDNQEYIEQKLEEQEREEIFRMKKIKAKKEEEEDALAAEEEAEEEPEAVTADDAAALEHHHHHH | soluble
15 | MAKEFQLTHIFKKVSEFKDGECRCGPLEEHFNVEWLLYINRKDDELAVFLGCNSLQGTEETTLSIYVELKFTLKNSIGTRVTKIAKCLLSNKSTESDFGLNKFIGWETLLKDYLIDDSIIIEAKIKITKMTGFPRKELRSFDESSEEYSDMIIAVGDRKFYVLKQLLASNSTHFQSLIPLDFEEMDCEGKSEITLPDINPSDFQCLLEVLYGEPAMDDENVEGILHSAHMYKMTKVIRNCEEFLSNKSEKPMRDKFKIAKQYQLESLKKSCLSKIQTIQDIKSAMAGDLSDMDATVVAALLEKSVTIEPPSKNGRPY | soluble
16 | MAKESVKILQGKLDVKSLIDQLNAALSEEWLAYYQYWVGALVVEGAMRADVQGEFEEHAEEERHHAQLIADRIIELEGVPVLDPKKWFELARCKYDSPTAFDSVSLLNQNVSSERCAILRYQEIANFTNGKDYTTCDIAKHILAEEEEHEQDLQDYLTDIARMKESFLKK | soluble
17 | MAKGDPKKPKGKMSAYAFFVQTCREEHKKKNPEVPVNFAEFSKKCSERWKTMSGKEKSKFDEMAKADKVRYDREMKDYGPAKGGKKKKDPNAPKRPPSGFFLFCSEFRPKIKSTNPGISIGDVAKKLGEMWNNLNDSEKQPYITKAAKLKEKYEKDVADYKSKGKFDGAKGPAKVARKKVEEEDEEEEEEEEEEEEEEDE | soluble
